Target: T1, FLAG-TBC1D9Bα from a stable HEK293 cell line (human, UniProt Q66K14-1 1-1250)
T1 construct: human TBC1D9B, alpha splice form, in pcDNA3.1-FLAG; also called FLAG-tagged recombinant TBC1D9B; source: purified (anti-FLAG M2 beads, eluted with glycine HCl) for the pull-down; in lysate for the co-IP
Assay: pull-down; GST fusion on glutathione-sepharose beads, incubated with recombinant FLAG-TBC1D9B or His-LC3B at 4 °C for 1 hour; 20 mM Tris pH 7.4, 0.1 mM EDTA, 100 mM NaCl; SDS-PAGE with Coomassie Brilliant Blue
Conditions: both partners purified

T1 sequence (Q66K14 whole entry, canonical isoform): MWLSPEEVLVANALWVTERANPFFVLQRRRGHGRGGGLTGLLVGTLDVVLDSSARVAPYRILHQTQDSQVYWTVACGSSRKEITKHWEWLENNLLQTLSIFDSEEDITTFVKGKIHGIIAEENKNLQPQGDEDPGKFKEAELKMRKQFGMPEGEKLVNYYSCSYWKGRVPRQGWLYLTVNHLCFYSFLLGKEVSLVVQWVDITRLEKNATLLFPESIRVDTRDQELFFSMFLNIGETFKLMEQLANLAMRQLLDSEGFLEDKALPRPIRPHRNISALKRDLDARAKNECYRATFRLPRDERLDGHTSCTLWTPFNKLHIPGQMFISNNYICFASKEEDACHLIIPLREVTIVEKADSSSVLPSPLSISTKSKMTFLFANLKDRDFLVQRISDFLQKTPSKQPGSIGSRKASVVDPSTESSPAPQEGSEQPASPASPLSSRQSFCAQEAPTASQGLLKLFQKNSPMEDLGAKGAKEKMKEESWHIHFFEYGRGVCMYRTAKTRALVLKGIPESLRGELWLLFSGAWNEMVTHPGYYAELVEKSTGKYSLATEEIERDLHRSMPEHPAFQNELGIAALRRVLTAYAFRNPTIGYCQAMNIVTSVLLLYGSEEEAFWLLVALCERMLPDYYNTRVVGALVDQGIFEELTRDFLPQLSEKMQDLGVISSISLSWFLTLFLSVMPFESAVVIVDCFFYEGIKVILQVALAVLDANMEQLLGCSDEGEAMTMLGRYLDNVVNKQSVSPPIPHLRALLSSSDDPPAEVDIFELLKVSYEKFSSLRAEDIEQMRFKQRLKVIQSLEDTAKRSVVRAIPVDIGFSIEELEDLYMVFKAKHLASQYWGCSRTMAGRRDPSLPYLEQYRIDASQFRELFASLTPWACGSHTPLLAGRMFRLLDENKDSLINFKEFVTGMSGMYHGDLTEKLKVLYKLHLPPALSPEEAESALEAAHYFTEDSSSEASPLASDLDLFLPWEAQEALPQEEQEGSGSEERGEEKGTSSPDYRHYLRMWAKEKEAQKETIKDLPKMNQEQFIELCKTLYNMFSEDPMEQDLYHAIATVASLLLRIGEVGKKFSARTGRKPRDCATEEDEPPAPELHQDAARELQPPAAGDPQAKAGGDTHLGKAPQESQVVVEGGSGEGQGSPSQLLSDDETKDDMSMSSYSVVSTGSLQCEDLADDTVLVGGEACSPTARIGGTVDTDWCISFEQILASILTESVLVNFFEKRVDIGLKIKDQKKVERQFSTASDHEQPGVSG

B1: recombinant GST-GABARAP (natural protein, human, UniProt O95166 1-117, looked up)
chain: MKFVYKEEHPFEKRRSEGEKIRKKYPDRVPVIVEKAPKARIGDLDKKKYLVPSDLTVGQFYFLIRKRIHLRAEDALFFFVNNVIPPTSATMGQLYQEHHEEDFFLYIAYSDESVYGL
notes: human GABARAP, cloned into pGEX-6p; also called GST-fused GABARAP; source: E. coli BL21, purified (glutathione-sepharose)
B1: binds.
